Experimental findings from publication PMC6929039 are described below.

This data set concerns the target Concanavalin A (Con A) (UniProt P02866 164-281+30-148, internal_change). The data set is described as follows: particle flow cytometry; 10 nM Con A; binding buffer, salt, pH and temperature not given in the material (hemagglutination: 30 min preincubation at RT).

B1: ConA-3-1n (ssDNA)
DNA: GATCCCAGTCCGAAGTAATCGTTGCATCTGCACGACTGGTGAGCTTGAGTGGCAGAAGAACTTGTGCAAACGGCTATAGG
modifications: none
On to B1, for which the binding result is reported as “no binding”.
